Values quoted from earlier work, collected in PMC4454200.

Target: Myosin-5a GTD (Mus musculus) (UniProt Q99104)
Sequence (Q99104 1469-1853): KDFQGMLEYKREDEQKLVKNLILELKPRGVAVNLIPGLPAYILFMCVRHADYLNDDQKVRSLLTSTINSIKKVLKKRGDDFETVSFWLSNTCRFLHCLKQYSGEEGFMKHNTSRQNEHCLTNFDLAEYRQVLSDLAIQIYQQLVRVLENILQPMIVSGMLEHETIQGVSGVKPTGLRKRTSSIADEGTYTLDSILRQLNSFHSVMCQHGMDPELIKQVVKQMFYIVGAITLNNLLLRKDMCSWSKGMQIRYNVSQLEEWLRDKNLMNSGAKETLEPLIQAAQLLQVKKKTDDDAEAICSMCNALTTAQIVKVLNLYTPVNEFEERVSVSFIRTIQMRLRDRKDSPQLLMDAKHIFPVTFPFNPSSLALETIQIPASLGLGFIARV

Chain of Melanophilin GTBDP (Q91V27 176-201): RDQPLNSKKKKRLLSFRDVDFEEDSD

Kd: 500 nM
Substance: Melanophilin GTBDP (from UniProt Q91V27)
